Patent publication US20200190507A1, “Encoded Solid Phase Compound Library with Polynucleotide Based Barcoding” (The Scripps Research Institute, priority 2016, published 2020)
“Also recorded” adds a separate entry of the source.

Test system: ATB serum IgGs
Test: Antigen competition binding analysis with beads displaying 2-B
Design: species or system human
Conditions: for competition with 2-B for binding ATB serum IgGs: pooled ATB serum, beads displaying 2-B, CFP 250 μg/mL

Molecule | competition with 2-B for binding ATB serum IgGs | ATB IgG binding of Ag85B relative to Ag85A (competition titration with 2-B beads)
recombinant Ag85B: Mycobacterium tuberculosis recombinant protein reference standard Ag85B, expressed in E. coli (protein) FSRPGLPVEYLQVPSPSMGRDIKVQFQSGGNNSPAVYLLDGLRAQDDYNGWDINTPAFEWYYQSGLSIVMPVGGQSSFYSDWYSPACGKAGCQTYKWETFLTSELPQWLSANRAVKPTGSAAIGLSMAGSSAMILAAYHPQQFIYAGSLSALLDPSQGMGPSLIGLAMGDAGGYKAADMWGPSSDPAWERNDPTQQIPKLVANNTRLWVYCGNGTPNELGGANIPAEFLENFVRSSNLKFQDAYNAAGGHNAVFNFPPNGTHSWEYWGAQLNAMKGDLQSSLGAG | no binding competition; also recorded: unreactive; also recorded: did not compete | 
Ag85B: Mycobacterium tuberculosis purified native protein Ag85B (Gene Rv1886c), Strain H37Rv (protein) FSRPGLPVEYLQVPSPSMGRDIKVQFQSGGNNSPAVYLLDGLRAQDDYNGWDINTPAFEWYYQSGLSIVMPVGGQSSFYSDWYSPACGKAGCQTYKWETFLTSELPQWLSANRAVKPTGSAAIGLSMAGSSAMILAAYHPQQFIYAGSLSALLDPSQGMGPSLIGLAMGDAGGYKAADMWGPSSDPAWERNDPTQQIPKLVANNTRLWVYCGNGTPNELGGANIPAEFLENFVRSSNLKFQDAYNAAGGHNAVFNFPPNGTHSWEYWGAQLNAMKGDLQSSLGAG | compete strongly | ~10 fold
